The text below walks through data of the supplement of paper PMC10567573.

The chains are these.
B1: EPB41L3 (parent)
chain: FRFAPNHTKELEDKVIELHKSHRG
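Further: lentivirally expressed fusions sorted by FACS into six bins by GFP to DsRed ratio, PSI derived from sequencing read proportions per bin multiplied by bin number.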

The variants in the data set derive from B1. Nature of the data set: protein stability index of a GFP-peptide fusion (GPS, HEK-293T) (PSI 1-6); higher = more stable. To be noted: c terminus: a fixed tail appended.
As to FRFAPNHTKELCDKVIELHKSHRG, the protein stability index stood at 1.83.

Turning to FRFAPNHTKELNDKVIELHKSHRG, the protein stability index worked out at 1.74.

In the case of FRFAPNHTKELGDKVIELHKSHRG, the protein stability index amounted to 2.33.

For the variant FRFAPNHTKELHDKVIELHKSHRG, the protein stability index stood at 2.34.

Regarding FRFAPNHTKELADKVIELHKSHRG, the protein stability index stood at 1.99.

Turning to FRFAPNHTKELQDKVIELHKSHRG, the protein stability index was 2.09.

With FRFAPNHTKELRDKVIELHKSHRG, the protein stability index came to 1.56.

In the case of FRFAPNHTKELPDKVIELHKSHRG, the protein stability index stood at 2.34.

On to FRFAPNHTKELMDKVIELHKSHRG, for which the protein stability index was 1.75.

FRFAPNHTKELFDKVIELHKSHRG: the protein stability index turned out to be 2.17.

On to FRFAPNHTKELLDKVIELHKSHRG, for which the protein stability index is 1.97.

FRFAPNHTKELIDKVIELHKSHRG: the protein stability index came out at 1.27.

With FRFAPNHTKELDDKVIELHKSHRG, the protein stability index was 1.83.

In the case of FRFAPNHTKELSDKVIELHKSHRG, the protein stability index was 2.41.

Consider FRFAPNHTKELKDKVIELHKSHRG, for which the protein stability index came to 1.96.

On to FRFAPNHTKELTDKVIELHKSHRG, for which the protein stability index amounted to 1.36.

In the case of FRGAPNHTKELEDKVIELHKSHRG, the protein stability index amounted to 4.63.

In the case of FRIAPNHTKELEDKVIELHKSHRG, the protein stability index was 3.86.

For FRYAPNHTKELEDKVIELHKSHRG, the protein stability index stood at 2.28.

Turning to FRWAPNHTKELEDKVIELHKSHRG, the protein stability index came out at 2.97.

In the case of FRAAPNHTKELEDKVIELHKSHRG, the protein stability index was determined as 3.78.

FRSAPNHTKELEDKVIELHKSHRG: the protein stability index was determined as 4.07.

Take FRKAPNHTKELEDKVIELHKSHRG: the protein stability index was 4.63.

Regarding FRDAPNHTKELEDKVIELHKSHRG, the protein stability index is 4.48.

As to FRNAPNHTKELEDKVIELHKSHRG, the protein stability index was found to be 4.21.

With FRQAPNHTKELEDKVIELHKSHRG, the protein stability index stood at 4.16.

In the case of FRCAPNHTKELEDKVIELHKSHRG, the protein stability index amounted to 3.74.

As for FRMAPNHTKELEDKVIELHKSHRG, the protein stability index is 4.02.

For the variant FRTAPNHTKELEDKVIELHKSHRG, the protein stability index was found to be 3.99.

On to FREAPNHTKELEDKVIELHKSHRG, for which the protein stability index amounted to 4.57.

Regarding FRVAPNHTKELEDKVIELHKSHRG, the protein stability index was 4.42.

For FRLAPNHTKELEDKVIELHKSHRG, the protein stability index amounted to 3.48.

In the case of FRRAPNHTKELEDKVIELHKSHRG, the protein stability index came out at 3.6.

For the variant FRHAPNHTKELEDKVIELHKSHRG, the protein stability index worked out at 4.03.

Turning to FRPAPNHTKELEDKVIELHKSHRG, the protein stability index was 4.25.

Regarding FRFAPNHRKELEDKVIELHKSHRG, the protein stability index was determined as 1.92.

For FRFAPNHYKELEDKVIELHKSHRG, the protein stability index was found to be 2.05.

As for FRFAPNHHKELEDKVIELHKSHRG, the protein stability index is 1.74.

Turning to FRFAPNHGKELEDKVIELHKSHRG, the protein stability index worked out at 1.86.

In the case of FRFAPNHCKELEDKVIELHKSHRG, the protein stability index is 2.02.

Consider FRFAPNHMKELEDKVIELHKSHRG, for which the protein stability index stood at 2.21.

Regarding FRFAPNHFKELEDKVIELHKSHRG, the protein stability index turned out to be 2.3.

Turning to FRFAPNHVKELEDKVIELHKSHRG, the protein stability index stood at 1.98.

As for FRFAPNHDKELEDKVIELHKSHRG, the protein stability index amounted to 2.01.

Turning to FRFAPNHLKELEDKVIELHKSHRG, the protein stability index is 1.82.

For FRFAPNHPKELEDKVIELHKSHRG, the protein stability index amounted to 1.75.

Turning to FRFAPNHKKELEDKVIELHKSHRG, the protein stability index came to 2.39.

Consider FRFAPNHAKELEDKVIELHKSHRG, for which the protein stability index came to 2.11.

As for FRFAPNHEKELEDKVIELHKSHRG, the protein stability index turned out to be 2.78.

For the variant FRFAPNHIKELEDKVIELHKSHRG, the protein stability index was determined as 2.49.

Turning to FRFAPNHSKELEDKVIELHKSHRG, the protein stability index worked out at 1.92.

Turning to FRFAPNHWKELEDKVIELHKSHRG, the protein stability index amounted to 1.84.

Turning to FRFAPNHNKELEDKVIELHKSHRG, the protein stability index is 2.17.

As for FRFAPMHTKELEDKVIELHKSHRG, the protein stability index was 1.83.

For FRFAPLHTKELEDKVIELHKSHRG, the protein stability index amounted to 2.37.

Turning to FRFAPQHTKELEDKVIELHKSHRG, the protein stability index stood at 2.02.

Take FRFAPVHTKELEDKVIELHKSHRG: the protein stability index was 1.53.

As for FRFAPKHTKELEDKVIELHKSHRG, the protein stability index turned out to be 1.92.

For FRFAPSHTKELEDKVIELHKSHRG, the protein stability index is 2.17.

In the case of FRFAPIHTKELEDKVIELHKSHRG, the protein stability index was found to be 1.55.

Consider FRFAPFHTKELEDKVIELHKSHRG, for which the protein stability index was found to be 1.74.

FRFAPRHTKELEDKVIELHKSHRG: the protein stability index came out at 2.03.

As to FRFAPCHTKELEDKVIELHKSHRG, the protein stability index was determined as 1.97.

FRFAPDHTKELEDKVIELHKSHRG: the protein stability index came to 2.

As for FRFAPPHTKELEDKVIELHKSHRG, the protein stability index is 2.23.

FRFAPEHTKELEDKVIELHKSHRG: the protein stability index came to 3.17.

Consider FRFAPGHTKELEDKVIELHKSHRG, for which the protein stability index was determined as 2.56.

For FRFAPTHTKELEDKVIELHKSHRG, the protein stability index was found to be 2.08.

On to FRFAPHHTKELEDKVIELHKSHRG, for which the protein stability index was 2.54.

As to FRFAPNHTKEHEDKVIELHKSHRG, the protein stability index is 2.29.

FRFAPNHTKEFEDKVIELHKSHRG: the protein stability index turned out to be 2.48.

On to FRFAPNHTKENEDKVIELHKSHRG, for which the protein stability index amounted to 1.65.

Take FRFAPNHTKEPEDKVIELHKSHRG: the protein stability index is 1.87.

Regarding FRFAPNHTKESEDKVIELHKSHRG, the protein stability index worked out at 1.72.

Take FRFAPNHTKEAEDKVIELHKSHRG: the protein stability index worked out at 1.54.

As to FRFAPNHTKEEEDKVIELHKSHRG, the protein stability index is 1.97.

For the variant FRFAPNHTKEWEDKVIELHKSHRG, the protein stability index stood at 1.99.

As for FRFAPNHTKEYEDKVIELHKSHRG, the protein stability index was found to be 2.05.

As for FRFAPNHTKEIEDKVIELHKSHRG, the protein stability index stood at 2.46.

Consider FRFAPNHTKEGEDKVIELHKSHRG, for which the protein stability index was 2.89.

As to FRFAPNHTKEREDKVIELHKSHRG, the protein stability index is 1.92.

For the variant FRFAPNHTKEQEDKVIELHKSHRG, the protein stability index was 2.25.

Consider FRFAPNHTKEKEDKVIELHKSHRG, for which the protein stability index came to 2.53.

In the case of FRFAPNHTKEDEDKVIELHKSHRG, the protein stability index was 2.53.

For the variant FRFAPNHTKEVEDKVIELHKSHRG, the protein stability index was determined as 2.25.

Turning to FRFAPNHTKETEDKVIELHKSHRG, the protein stability index amounted to 2.21.

Regarding FRFAPNHTKECEDKVIELHKSHRG, the protein stability index came out at 2.18.

As for FRFAPNHTKEMEDKVIELHKSHRG, the protein stability index amounted to 1.83.

Turning to FRFAPNWTKELEDKVIELHKSHRG, the protein stability index was 1.6.

For FRFAPNLTKELEDKVIELHKSHRG, the protein stability index is 1.62.

Take FRFAPNTTKELEDKVIELHKSHRG: the protein stability index stood at 1.91.

Turning to FRFAPNVTKELEDKVIELHKSHRG, the protein stability index came to 1.85.

With FRFAPNATKELEDKVIELHKSHRG, the protein stability index is 2.83.

Consider FRFAPNRTKELEDKVIELHKSHRG, for which the protein stability index is 2.11.
